What was measured:
[1] = test system: T1, SAStide-Cy5 (Syk Artificial Substrate peptide conjugated with Cy5)
T1 sequence: GGDEEDYEEPDEPGGCGG

[2] = test system: T2, 5-FAM-SFAStide-A (Src-Family kinase Artificial Substrate peptide)
T2 sequence: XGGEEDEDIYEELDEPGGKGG

Row | Substance | ELISA-based chemifluorescence (anti-phosphotyrosine 4G10, HRP secondary, Amplex Red) of an in vitro kinase reaction [1] | TR-LRET emission (Cy5 fluorescence signal) over the time course of an in vitro kinase reaction [1] | TR-LRET emission (5-FAM fluorescence signal) in the in vitro kinase reaction with Syk only [2]
1 | Syk-EGFP | the ELISA-based assay displayed increasing fluorescent signal over time for the appropriately match substrates | – | –
2 | Syk-His6 (His6-tagged spleen tyrosine kinase) | – | TR-LRET emission spectra for each respective biosensor displayed an increase in the conjugated dye's fluorescence signal | with minimal bleed through or background interference from the fluorophore attached to the other biosensor
